Laboratory results as given in article PMC6588657 (2018).

Molecular target: Full-length Drosophila ATL (Drosophila) (UniProt Q9VC57)
Sequence (Q9VC57 whole entry): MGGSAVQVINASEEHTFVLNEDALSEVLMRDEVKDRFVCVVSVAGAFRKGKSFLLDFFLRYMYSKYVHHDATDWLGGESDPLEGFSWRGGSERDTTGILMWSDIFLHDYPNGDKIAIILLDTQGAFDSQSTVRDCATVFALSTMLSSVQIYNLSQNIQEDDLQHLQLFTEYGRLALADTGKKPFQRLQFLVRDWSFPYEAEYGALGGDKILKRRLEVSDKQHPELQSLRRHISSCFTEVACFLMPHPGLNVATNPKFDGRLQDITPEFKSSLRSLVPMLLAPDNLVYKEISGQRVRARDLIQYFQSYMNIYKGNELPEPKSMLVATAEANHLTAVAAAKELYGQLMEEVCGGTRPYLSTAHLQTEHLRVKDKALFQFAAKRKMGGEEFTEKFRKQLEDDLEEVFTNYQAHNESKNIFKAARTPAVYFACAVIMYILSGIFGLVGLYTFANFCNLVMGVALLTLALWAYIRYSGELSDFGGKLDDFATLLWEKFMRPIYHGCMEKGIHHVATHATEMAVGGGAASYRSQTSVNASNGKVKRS

GTP-dependent fusion of dmATL donor and acceptor vesicles (NBD dequenching), dmLnp-NT at 5 times the concentration of dmATL, against samples without Lnp: 50%
Substance: dmLnp-NT-Flag-GST (domain or fragment)
